Results published in patent US20210087270A1.

Columns and labels:
[1] = target: recombinant human KIR3DL2 protein (human) (UniProt P43630); assay: SPR (Biacore), bivalent binding, N = 1
[2] = target: human KIR3DL2 (CD158k), wild type, at the cell surface (human) (UniProt P43630); assay: flow cytometry, concentration-response binding of PE-labelled IPH4102 on primary Sezary tumor cells
[3] = target: human KIR3DL2 (CD158k), wild type, at the cell surface (human) (UniProt P43630); assay: flow cytometry, concentration-response binding of PE-labelled IPH4102 on COU-L Sezary cell line
[4] = target: human KIR3DL2 (CD158k), wild type, at the cell surface (human) (UniProt P43630); assay: flow cytometry, concentration-response binding of PE-labelled IPH4102 on HuT78 Sezary cell line
[5] = target: recombinant human KIR3DL2 protein (human) (UniProt P43630); assay: SPR (Biacore), bivalent binding, N = 2
[6] = target: recombinant human KIR3DL2 protein (human) (UniProt P43630); assay: SPR (Biacore), mean off-rate for bivalent binding converted to per hour
[7] = target: human KIR3DL2 (CD158k), wild type, at the cell surface (human) (UniProt P43630); assay: PK/PD model parameter 'Binding affinity', set from the filing's flow cytometry titration of IPH4102 on KIR3DL2-positive cells (EC50 about 0.07 ug/mL); not a separate kinetic measurement
[8] = target: recombinant human KIR3DL2 protein (human) (UniProt P43630); assay: SPR (Biacore), average bivalent binding affinity to recombinant KIR3DL2
[9] = target: recombinant human KIR3DL2 protein (human) (UniProt P43630); assay: SPR (Biacore), bivalent binding, N = 3
[10] = target: recombinant human KIR3DL2 protein (human) (UniProt P43630); assay: SPR (Biacore), bivalent binding, mean of three
[11] = target: human KIR3DL2 (CD158k), wild type, at the cell surface (human) (UniProt P43630); assay: cell-based or functional assay

Chain of human KIR3DL2 (CD158k), wild type, at the cell surface (human) (P43630 22-455 E158D): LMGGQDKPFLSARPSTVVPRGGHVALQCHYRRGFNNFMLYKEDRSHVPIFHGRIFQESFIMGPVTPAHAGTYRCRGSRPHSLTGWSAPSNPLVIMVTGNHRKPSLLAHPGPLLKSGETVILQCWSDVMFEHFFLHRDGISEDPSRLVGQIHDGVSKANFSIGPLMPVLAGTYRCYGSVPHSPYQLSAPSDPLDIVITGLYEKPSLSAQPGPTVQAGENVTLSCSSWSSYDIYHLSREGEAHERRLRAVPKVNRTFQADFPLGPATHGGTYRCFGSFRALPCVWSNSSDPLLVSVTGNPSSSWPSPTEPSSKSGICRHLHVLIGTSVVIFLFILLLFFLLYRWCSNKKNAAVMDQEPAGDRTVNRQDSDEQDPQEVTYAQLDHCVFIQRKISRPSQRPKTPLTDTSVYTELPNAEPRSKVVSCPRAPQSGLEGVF

B1: IPH4102 (humanized 2B12 mAb, full-length human IgG1 anti-KIR3DL2 antibody) (antibody, from a related filing, V domains shown)
VH: QIQLVQSGSELKKPGASVKVSCKASGYTFTTAGMQWVRQAPGQGLEWIGWINSHSGVPKYAEDFKGRFVFSLDTSVSTAYLQISSLKAEDTAVYFCARGGDEGVMDYWGQGTTVTVSS
VL: DIQMTQSPSFLSASVGDRVTITCKASQDVSTAVAWYQQKPGQPPKLLIYWTSTRHTGVPDRFSGSGSGTDYTLTISSLQAEDVAVYYCQQHYSTPWTFGGGTKVEIK
Q: Which Kd [1] does the source give for B1 here?
A: The Kd was 0.162 nM.

Q: What about the koff [1] of the same binder?
A: Its koff is 0.000156 s⁻¹.

Q: And the kon [1]?
A: The kon was 968000 M⁻¹ s⁻¹.

Q: And the EC50 [2]?
A: The EC50 was 0.07 µg/mL.

Q: What about the EC50 [3] of the same binder?
A: Its EC50 is 0.087 µg/mL.

Q: What about the EC50 [4] of the same binder?
A: Its EC50 is 0.06 µg/mL.

Q: And the Kd [5]?
A: Its Kd is 0.131 nM.

Q: And the koff [5]?
A: The koff was 0.000125 s⁻¹.

Q: And the kon [5]?
A: The kon was 953000 M⁻¹ s⁻¹.

Q: What about the koff [6] of the same binder?
A: Its koff is 0.00014 s⁻¹.

Q: And the Kd [7]?
A: Its Kd is 0.07 µg/mL.

Q: And the Kd [8]?
A: The Kd was 0.0219 µg/mL.

Q: What about the Kd [9] of the same binder?
A: The Kd was 0.144 nM.

Q: And the koff [9]?
A: The koff was 0.000139 s⁻¹.

Q: And the kon [9]?
A: The kon was 965000 M⁻¹ s⁻¹.

Q: And the Kd [10]?
A: Its Kd is 0.146 nM.

Q: And the koff [10]?
A: Its koff is 0.00014 s⁻¹.

Q: What about the kon [10] of the same binder?
A: Its kon is 962000 M⁻¹ s⁻¹.

Q: What about the EC50 in 51Cr-release assay HuT 78 tumor lysis by PBMC from healthy volunteers [11] of the same binder?
A: The EC50 in 51Cr-release assay HuT 78 tumor lysis by PBMC from healthy volunteers was 0.045 µg/mL.

Q: And the median EC10 in the 51Cr release assay (HuT78 tumor cell lysis by healthy donors' PBMC, NK cell lytic capacity) [11]?
A: The median EC10 in the 51Cr release assay (HuT78 tumor cell lysis by healthy donors' PBMC, NK cell lytic capacity) was 0.002 µg/mL.
